{"source": "paper PMC4367193", "about": "(Biochemistry, 2009)", "key": {"Aβ42WT [1]": {"biological_target": "T1, Aβ42WT (Homo sapiens, UniProt P05067)", "T1 sequence (P05067 672-713 limits assumed)": "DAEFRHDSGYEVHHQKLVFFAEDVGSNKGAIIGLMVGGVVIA", "assay": "Circular dichroism spectroscopy, Aβ42WT β-sheet formation", "type": "biochemical"}, "Aβ42WT [2]": {"biological_target": "T1, Aβ42WT", "type": "biochemical", "settings": "37°C"}, "Aβ42WT [3]": {"biological_target": "T1, Aβ42WT", "assay": "Surface plasmon resonance, binding to immobilised Aβ42WT"}, "Aβ40DI [4]": {"biological_target": "Aβ40DI", "assay": "Surface plasmon resonance, binding to Aβ40DI", "settings": "ECP negative control; SPR"}, "Aβ40WT": {"biological_target": "Aβ40WT", "assay": "Surface plasmon resonance, binding to Aβ40WT", "settings": "ECP negative control; SPR"}, "MBP/Aβ42WT interaction": {"tested_on": "MBP/Aβ42WT interaction", "assay": "Competitive co-immunoprecipitation, binding of Aβ42WT to MBP", "parameters": "species or system human", "settings": "data not shown"}, "Aβ [5]": {"tested_on": "Aβ", "type": "binding, human", "settings": "soluble cortical homogenate, polyclonal anti-MBP IgG, Fig. 1D"}, "Aβ [6]": {"tested_on": "Aβ", "type": "binding, 5xFAD mouse", "settings": "soluble cortical homogenate, polyclonal anti-MBP IgG, Fig. 1D"}, "Aβ42WT [7]": {"biological_target": "T1, Aβ42WT", "assay": "Attenuated total reflection infrared spectroscopy, Aβ42WT β-sheet formation", "type": "biochemical", "settings": "Aβ42 50 μM in PBS, MBP 6.25 μM, 37°C, 24 h; second-derivative ATR-IR"}, "Aβ42WT [8]": {"biological_target": "T1, Aβ42WT", "assay": "Thioflavin T fluorescence assay, Aβ42WT fibril formation", "type": "biochemical", "settings": "Aβ42 12.5 μM, MBP 1.56 μM, 37°C, 150 mM NaCl; triplicate"}, "Aβ40DI [9]": {"tested_on": "Aβ40DI", "settings": "previous study; ref [25] Hoos et al. 2007; cited from earlier work"}}, "data": [{"molecule": "Aβ42WT: wild-type Aβ42 peptide, synthesized by solid-phase Fmoc chemistry", "values": [{"measurement": "Time at which β-sheet formation begins to plateau (CD, 215 nm)", "setting": "Aβ42WT [1]; Aβ42WT alone 50 μM, 37°C, 11 mM NaCl, results section", "result": 24, "unit": "h"}, {"measurement": "Length of oligomeric structures", "setting": "Aβ42WT [2]; Aβ42WT alone, 6 h", "result": "up to 40 nm"}, {"measurement": "Average height of fibrillar structures", "setting": "Aβ42WT [2]; Aβ42WT alone, 24 h", "result": "over 4 nm"}]}, {"molecule": "ECP: Eosinophil cationic protein, very similar charge and molecular mass compared to MBP, negative control (protein, UniProt P12724 28-160, looked up) Eosinophil cationic protein: RPPQFTRAQWFAIQHISLNPPRCTIAMRAINNYRWRCKNQNTFLRTTFANVVNVCGNQSIRCPHNRTLNNCHRSRFRVPLLHCDLINPGAQNISNCTYADRPGRRFYVVACDNRDPRDSPRYPVVPVHLDTTI", "values": [{"measurement": "Detectable binding to Aβ42WT ligand surface", "setting": "Aβ42WT [3]; concentrations up to 32-fold greater than MBP, SPR", "result": "No binding could be detected"}, {"measurement": "Binding affinity (KD) for Aβ40DI, ECP", "setting": "Aβ40DI [4]", "result": "not detected"}, {"measurement": "Binding affinity (KD) for Aβ40WT, ECP", "setting": "Aβ40WT", "result": "not detected"}, {"measurement": "Competition of ECP with MBP for binding to Aβ42", "setting": "MBP/Aβ42WT interaction", "result": "did not compete for MBP binding to Aβ42"}]}, {"molecule": "MBP: Purified human MBP (purchased from Chemicon International) (protein, UniProt P02686 1-304, looked up) Myelin basic protein: MGNHAGKRELNAEKASTNSETNRGESEKKRNLGELSRTTSEDNEVFGEADANQNNGTSSQDTAVTDSKRTADPKNAWQDAHPADPGSRPHLIRLFSRDAPGREDNTFKDRPSESDELQTIQEDSAATSESLDVMASQKRPSQRHGSKYLATASTMDHARHGFLPRHRDTGILDSIGRFFGGDRGAPKRGSGKDSHHPARTAHYGSLPQKSHGRTQDENPVVHFFKNIVTPRTPPPSQGKGRGLSLSRFSWGAEGQRPGFGYGGRASDYKSAHKGFKGVDAQGTLSKIFKLGGRDSRSGSPMARR", "values": [{"measurement": "KD with Aβ42WT compared with Aβ40DI", "setting": "Aβ42WT [3]; calculated KD between MBP and Aβ42WT versus affinity between MBP and Aβ40DI (ref [25])", "result": "comparable to the affinity between MBP and Aβ40DI"}, {"measurement": "KD with Aβ42WT compared with Aβ40WT", "setting": "Aβ42WT [3]; calculated KD between MBP and Aβ42WT versus that between MBP and Aβ40WT (ref [25])", "result": "stronger than that between MBP and Aβ40WT"}, {"measurement": "Interaction of MBP with Aβ in human AD brain homogenate", "setting": "Aβ [5]", "result": "MBP can interact with Aβ peptides"}, {"measurement": "Interaction of MBP with Aβ in 5xFAD mouse brain homogenate", "setting": "Aβ [6]", "result": "MBP can interact with Aβ peptides"}, {"measurement": "Absolute CD ellipticity at 215 nm with MBP", "setting": "Aβ42WT [1]; MBP alone and Aβ42WT (50 μM) with MBP (6.25 μM), 37°C, 0-36 h", "result": "remained low and decreased somewhat over the course of incubation"}, {"measurement": "Conformation of MBP alone by CD", "setting": "Aβ42WT [1]; MBP alone, throughout the time-course, data not shown", "result": "characteristic random-coil conformation"}, {"measurement": "β-turn peaks at 1681 and 1675 cm^−1 on addition of MBP", "setting": "Aβ42WT [7]", "result": "remained unchanged even with the addition of MBP"}, {"measurement": "Thioflavin-T fluorescence in samples containing Aβ42WT and MBP", "setting": "Aβ42WT [8]", "result": "lack of thioflavin-T fluorescence"}, {"measurement": "Oligomeric structures at 6 h in the presence of MBP", "setting": "Aβ42WT [2]; 6 h, AFM and TEM", "result": "marked reduction"}, {"measurement": "Fibrils at 24 h in the presence of MBP", "setting": "Aβ42WT [2]; 24 h, TEM", "result": "noticeably absent"}, {"measurement": "Inhibition of fibrillar assembly of Aβ40DI", "setting": "Aβ40DI [9]", "result": "effectively inhibits the fibrillar assembly of Aβ40DI"}]}]}
